Reference: the nanobody polyreactivity screen of Harvey et al. (2022)

experiment: yeast display, Sf9 membrane polyspecificity reagent, FACS + sequencing; frameworks hold sequencing errors
Outline: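 Sorting gates, low and high (top ~1%), were placed on anti-HA fluorescence to track expression and on streptavidin fluorescence to track reagent binding. A clone's polyreactivity label is taken from the gate it came out of. The reagent was 10% biotinylated, detergent-solubilized Sf9 membrane, applied for 1 hour at 4 °C to galactose-induced yeast display cells.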

| Sequence | polyreactivity (PSR sort gate) |
| --- | --- |
| QVQLVESGGGLVQAGGSLRLSCAASGIIFYGYVMGWYRQAPGKERELVAAISKSGGSTYYADSVKGRFTISRDIAKNTVYLQMNSLIPEDTAVYYCAAERKSFYRYNYWGQGTQVSVSS | high polyreactivity |
| QVQLVESGGGLVQAGGSLRLSCAASGIIFYGYVMGWYRQAPGKERELVAAISKSGGSTYYADSVKGRFTISRDNAKNTVYLQMNSLKPEETAVYYCAAERKSFYRYNYWGQGTQVTVSS | high polyreactivity |
| QVQLVESGGGLVQAGGSLRLSCAASGIIFYKYAMGWYRQAPGKERELVAAINWSGGSTYYADSVKGRFTISRDNAKNTVYLQMNSLKPEDTAVYYCAADRTDFEYYYWGQGTQVTVSS | low polyreactivity |
| QVQLVESGGGLVQAGGSLRLSCAASGIIFYKYAMGWYRQAPGKERELVAAISYSGTSTYYADSVKGRFTISRDNAKNTVYLQINSLKPEDTAVYYCAAVTYVPRSTNGISLYDYWGQGTQVTVSS | high polyreactivity |
| QVQLVESGGGLVQAGGSLRLSCAASGIIFYKYAMGWYRQAPGKERELVAAITGRGGSTYYADSVKGRFTISRDNAKNTVYLRMNSLKPEDTAVYFCAASQRSGHPSYDYWGQGTQVTVSS | high polyreactivity |
| QVQLVESGGGLVQAGGSLRLSCAASGIIFYLYAMGWYRQAPGKERELVAAISRRGVSTYYADSVKGRFTISRDNAKNTVYLQMNSLKPEDTAVYYCAAAGFGYTGEEYWGQGTQVTVSS | high polyreactivity |
| QVQLVESGGGLVQAGGSLRLSCAASGIIFYLYTMGWYRQAPGKERELVAAISKSGARTYYADSVKGRFTISRDNAKNTVYLQMNSLKPEDTAVYYCAADVSVSGYYYWGQGTQVTVSS | high polyreactivity |
| QVQLVESGGGLVQAGGSLRLSCAASGIIFYLYVMGWYRQAPGKERELVAVISYSGDDTYYADSVKVRFTISRDNAKNTVYLQMNSLKPEDTAVYYCAADSIGYGFDYWGQGTQVTVSS | low polyreactivity |
| QVQLVESGGGLVQAGGSLRLSCAASGIIFYPYTMGWYRQAPGKERELVAAINSGGSTYYADSVKGRFTISRDNAKNTVYLQMNSLKPEDTAVYYCAAEANRYSSGYDYWGQGTQVTVTS | low polyreactivity |
| QVQLVESGGGLVQAGGSLRLSCAASGIIFYRNAMGWYRQAPGKERELVAAISSRGGNTYYADSVKGRFTISRDNEKNTVYLQMNSLKPEDTAVYYCARDSYSLSRTYDSWGQGTQVTVSS | high polyreactivity |
| QVQLVESGGGLVQAGGSLRLSCAASGIIFYRNTMGWYRQAPGKERELVAAITSGGTTYADSVKGRFTISRDNAKNTVYLQMNSLKPEDTAVYYCATDYWYRGFEYEYWGQGTQVTVSS | high polyreactivity |
| QVQLVESGGGLVQAGGSLRLSCAASGIIFYRNTMGWYRQAPGKEWELVAAIRRGGNTYYADSVKGRFTISRDNAKNTVYLQMNSLKPEDTAVYYCAASAGPRASYYYWGQGTQVTVSS | high polyreactivity |
| QVQLVESGGGLVQAGGSLRLSCAASGIIFYRSVMGWYRQAPGKERELVAAITSGGSTNYADSVKGRFTISRDNAKNTVYLQMNSLKPEDTAVYYCAAVPRYRRWKYDYWGQGTQVTVSS | high polyreactivity |
| QVQLVESGGGLVQAGGSLRLSCAASGIIFYRYAMGCYRQAPGKEREFVAAISWSGGSTTYADSVKGRFTISRDNAKNTVYLQMNSLKPEDTAVYYCNADRKYWSLWGPAYDYWGQGTQVTVSS | high polyreactivity |
| QVQLVESGGGLVQAGGSLRLSCAASGIIFYRYAMGWYRQAPGKERELVARITYNGGRTYYADSVKGRFTISRDNAKKTVYLQMNSLKPEDSAVYYCAARGHGGYYYWGQGTQVTVSS | high polyreactivity |
| QVQLVESGGGLVQAGGSLRLSCAASGIIFYSYVMGWYRQAPGKERELVAVISRSGGRTYYADSVKGRFTISRDNAKNTVYLQMISLKPEDTAVYYWAAALGVALNDYWGQGTQVTVSS | high polyreactivity |
| QVQLVESGGGLVQAGGSLRLSCAASGIIFYTYAMGWYRQAPGKEREFVAGIRWSGSSTYYADSVKGRFTISRDNAKNTVYLQMNSLKPEDTAVYYCATGQPYGPLYSLGYGYWGQGTQVTVSS | high polyreactivity |
| QVQLVESGGGLVQAGGSLRLSCAASGIIFYVYAMGWYRQAPGKERELVAAISSSGGSTNYADSVKGRFTISRDNAKNTVYLQMNSLKPEDTAVYFCAAKWRTRGHTSARGYWGQGTQVTVSS | high polyreactivity |
| QVQLVESGGGLVQAGGSLRLSCAASGIIFYWYAMGWYRQAPGKERELVAAINSGGRTNYADSVKGRFTISRDNAKNTVYLQMNSLKPEDTAVYYCAARANPYVLKYYYWGQGTQVTVSS | high polyreactivity |
| QVQLVESGGGLVQAGGSLRLSCAASGIIFYYNAMGWYREAPGKEREFVASISSRGGSTYYADSVKGRFTISRDNSKNTVYLQMNSVKPEDTAVYYCAAAFDWRRQRYNYWGQGTQVTVTS | high polyreactivity |
| QVQLVESGGGLVQAGGSLRLSCAASGIIFYYNGMGWYRQAPGKERELVAAISGDGSTNYADSVKGRFTISRDNAKNTVYLQMNSLKPEDTAVYYCNADDIFRPRDDLYDYWGQGTQVTVSS | low polyreactivity |
| QVQLVESGGGLVQAGGSLRLSCAASGIIFYYNTMGWYRQAPGKERELVAAISQRGGSTYYADSVKGRFTISRDNAKNTVYLQMNSLKPEDTAVYYCNKLRNSHGFRYDYWGQGTQVTVSS | high polyreactivity |
| QVQLVESGGGLVQAGGSLRLSCAASGIIFYYYAMGWYRQAPGKERELVAAINWTGGDTYYADSVKGRFTISRDNAKNTVYLQMNSLKPEDTAVYYCNADSFYSYIYDYWGQGTQVTVSS | low polyreactivity |
| QVQLVESGGGLVQAGGSLRLSCAASGIIFYYYAMGWYRQAPGKERELVAAISKSGGSTYYADSVKGRFTISRDNAKNTVYLQMNRLKPEDTAVYYCAARGPSWLSYNYWGQGTQVTVSS | high polyreactivity |
| QVQLVESGGGLVQAGGSLRLSCAASGIIFYYYAMGWYRQAPGKERELVAAISWSGGSTYYADSVKGRFTISRDNAKNTVYLQMNSLKPEDTAVYYCAADYTGHIYYYWGQGTQVTVSS | low polyreactivity |
| QVQLVESGGGLVQAGGSLRLSCAASGIIFYYYAMGWYRQAPGKERELVASISRSGTDTYYADSVKGRFTISRDTAKNTVYLQMNSLKPEDTAVYYCAARGYYRWAAYADWRFNYWGQGTQVTVSS | high polyreactivity |
| QVQLVESGGGLVQAGGSLRLSCAASGIIFYYYAMGWYRQAPGKESELVADITYSGGSTYYADSVKGRFTISRDKAKNTVYLQMNSLKPEDTAVYYCAARVTVSHWPYYYDSSDYGGQGTQVTVSS | low polyreactivity |
| QVQLVESGGGLVQAGGSLRLSCAASGIIFYYYTMGWYRQAPGKETELVASITWSGGGSTYYADSVKGRFTISRDNAKNTVYLQMNSLKPEDTAVYYCNADEYYSYDYWGQGTQVTVSS | low polyreactivity |
| QVQLVESGGGLVQAGGSLRLSCAASGIIFYYYVLGWYRQAPGKERELVAAISARGGSTTYADSVKGRFTISRDNAKNTVYLQMISLKPEDTAVYYCAADVSYWRHGYQLSYDYWGQVTQVTVSS | high polyreactivity |
| QVQLVESGGGLVQAGGSLRLSCAASGIIIAYYAMGWYRQAPGKERVLVATISSGGRTKYADSVKGRFTISRDNAKNTVYLQMNSLKPEDTAVYYCNTDRYFRRYYWYDYWGQGTQVTVSS | high polyreactivity |
